Data published in the supplement of paper PMC9112550, “Optimization of the antimicrobial peptide Bac7 by deep mutational scanning” (BMC Biology, 2022).

System: Escherichia coli TOP10
Experiment: shrunken log2 fold change of peptide-encoding DNA abundance (4.5 h post-induction vs induction); higher = less antimicrobial activity (less host growth inhibition)
Settings: time post-induction: 4.5 h; library: site-saturation at positions 5, 18, 19, 20
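Further: peptides expressed intracellularly from a pBAD plasmid library in pooled LB shake-flask culture, induced with 0.3% L-arabinose, DNA abundance read by NGS, three biological replicates, DESeq2 with apeglm shrinkage.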

Point of comparison: RRIRHRPPRLPRPRPRPWFVPRP, “shrunken log2 fold change” value -0.14. Against it:
- RRIRTRPPRLPRPRPRPISWPRP — within 0.2 log units, -0.0406
- RRIRTRPPRLPRPRPRPFQIPRP — within 0.2 log units, -0.103
- RRIRYRPPRLPRPRPRPICRPRP — within 0.2 log units, -0.226
- RRIRIRPPRLPRPRPRPGGYPRP — within 0.2 log units, -0.16
- RRIRKRPPRLPRPRPRPADHPRP — higher, 0.111
- RRIRDRPPRLPRPRPRPAQGPRP — within 0.2 log units, 0.00228
- RRIRKRPPRLPRPRPRPAKAPRP — higher, 0.106
- RRIRTRPPRLPRPRPRPSRLPRP — within 0.2 log units, 0.0405
- RRIRARPPRLPRPRPRPYFTPRP — lower, -0.71
- RRIRDRPPRLPRPRPRPDINPRP — higher, 0.47
- RRIRYRPPRLPRPRPRPLYCPRP — lower, -0.975
- RRIRSRPPRLPRPRPRPGFDPRP — higher, 0.455
- RRIRARPPRLPRPRPRPCTEPRP — within 0.2 log units, -0.0123
- RRIRERPPRLPRPRPRPFVYPRP — within 0.2 log units, -0.123
- RRIRMRPPRLPRPRPRPNNIPRP — lower, -0.564
- RRIRTRPPRLPRPRPRPQLCPRP — within 0.2 log units, -0.0792
- RRIRHRPPRLPRPRPRPFWSPRP — within 0.2 log units, -0.0841
- RRIRMRPPRLPRPRPRPNFHPRP — within 0.2 log units, -0.0453
- RRIRCRPPRLPRPRPRPRSPPRP — higher, 0.636
- RRIRTRPPRLPRPRPRPKNNPRP — lower, -0.483
- RRIRERPPRLPRPRPRPGERPRP — higher, 0.104
- RRIRYRPPRLPRPRPRPKRIPRP — within 0.2 log units, -0.0123
- RRIRLRPPRLPRPRPRPMVRPRP — within 0.2 log units, 0.0341
- RRIRFRPPRLPRPRPRPSGWPRP — higher, 0.187
- RRIRFRPPRLPRPRPRPEPIPRP — higher, 0.291
- RRIRARPPRLPRPRPRPVCYPRP — within 0.2 log units, -0.128
- RRIRSRPPRLPRPRPRPRHMPRP — within 0.2 log units, -0.0166
- RRIRMRPPRLPRPRPRPNIEPRP — higher, 0.219
- RRIRERPPRLPRPRPRPYHNPRP — lower, -1.33
- RRIRGRPPRLPRPRPRPSMDPRP — higher, 0.0712
- RRIRERPPRLPRPRPRPQLEPRP — within 0.2 log units, -0.0385
- RRIRRRPPRLPRPRPRPVKPPRP — higher, 0.265
- RRIRMRPPRLPRPRPRPNSWPRP — higher, 0.122
- RRIRYRPPRLPRPRPRPSDFPRP — lower, -1.03
- RRIRTRPPRLPRPRPRPVPHPRP — within 0.2 log units, -0.0291
- RRIRWRPPRLPRPRPRPGIMPRP — higher, 0.238
- RRIRDRPPRLPRPRPRPEMHPRP — higher, 0.891
- RRIRRRPPRLPRPRPRPYEVPRP — within 0.2 log units, -0.0692
- RRIRIRPPRLPRPRPRPVHGPRP — within 0.2 log units, -0.0643
- RRIRARPPRLPRPRPRPWYEPRP — within 0.2 log units, -0.0297
- RRIRNRPPRLPRPRPRPAFGPRP — within 0.2 log units, -0.189
- RRIRRRPPRLPRPRPRPTEVPRP — higher, 0.238
- RRIRKRPPRLPRPRPRPSTLPRP — higher, 0.252
- RRIRNRPPRLPRPRPRPDHTPRP — within 0.2 log units, -0.0123
- RRIRKRPPRLPRPRPRPLVNPRP — within 0.2 log units, -0.0445
- RRIRLRPPRLPRPRPRPFEWPRP — within 0.2 log units, -0.151
- RRIRMRPPRLPRPRPRPMRQPRP — within 0.2 log units, -0.0415
- RRIRVRPPRLPRPRPRPCQFPRP — higher, 0.143
- RRIRIRPPRLPRPRPRPLYHPRP — lower, -0.761
- RRIRWRPPRLPRPRPRPEMWPRP — higher, 1.05
- RRIRTRPPRLPRPRPRPSTHPRP — lower, -0.575
- RRIRARPPRLPRPRPRPPKMPRP — higher, 0.298
- RRIRHRPPRLPRPRPRPRWMPRP — within 0.2 log units, -0.209
- RRIRTRPPRLPRPRPRPQHAPRP — within 0.2 log units, -0.0164
- RRIRARPPRLPRPRPRPPADPRP — higher, 1.42
- RRIRLRPPRLPRPRPRPDAEPRP — higher, 0.326
- RRIRGRPPRLPRPRPRPFMIPRP — within 0.2 log units, -0.0383
- RRIRERPPRLPRPRPRPMQKPRP — within 0.2 log units, 0.0175
- RRIRHRPPRLPRPRPRPHQMPRP — within 0.2 log units, -0.0152
- RRIRNRPPRLPRPRPRPFMSPRP — within 0.2 log units, -0.17
- RRIRTRPPRLPRPRPRPPNGPRP — higher, 0.104
- RRIRGRPPRLPRPRPRPPRSPRP — higher, 1.19
- RRIRNRPPRLPRPRPRPPVTPRP — higher, 0.228
- RRIRDRPPRLPRPRPRPLYAPRP — within 0.2 log units, -0.122
- RRIRCRPPRLPRPRPRPWYSPRP — lower, -0.361
- RRIRQRPPRLPRPRPRPYWKPRP — within 0.2 log units, 0.000139
- RRIRKRPPRLPRPRPRPFFPPRP — higher, 0.967
- RRIRFRPPRLPRPRPRPRPEPRP — higher, 0.477
- RRIRHRPPRLPRPRPRPPQGPRP — higher, 0.133
- RRIRFRPPRLPRPRPRPSSHPRP — lower, -0.682
- RRIRFRPPRLPRPRPRPCCLPRP — lower, -0.725
- RRIRARPPRLPRPRPRPEQIPRP — higher, 0.419
- RRIRFRPPRLPRPRPRPHVPPRP — within 0.2 log units, -0.315
- RRIRQRPPRLPRPRPRPTMIPRP — higher, 0.151
- RRIRCRPPRLPRPRPRPFMHPRP — lower, -1.01
- RRIRYRPPRLPRPRPRPVKGPRP — within 0.2 log units, -0.015
- RRIRQRPPRLPRPRPRPFPDPRP — within 0.2 log units, -0.108
- RRIRARPPRLPRPRPRPEDHPRP — higher, 0.392
- RRIRGRPPRLPRPRPRPERSPRP — higher, 1.36
- RRIRGRPPRLPRPRPRPSRNPRP — within 0.2 log units, 0.0365
- RRIRQRPPRLPRPRPRPKTAPRP — within 0.2 log units, 0.0173
- RRIRRRPPRLPRPRPRPLITPRP — within 0.2 log units, -0.0767
- RRIRWRPPRLPRPRPRPYLHPRP — lower, -0.639
- RRIRARPPRLPRPRPRPLFGPRP — higher, 0.235
- RRIRPRPPRLPRPRPRPGNYPRP — lower, -0.36
- RRIRHRPPRLPRPRPRPGWDPRP — higher, 0.18
- RRIRHRPPRLPRPRPRPLMPPRP — within 0.2 log units, -0.107
- RRIRTRPPRLPRPRPRPTGVPRP — higher, 0.077
- RRIRARPPRLPRPRPRPQFPPRP — within 0.2 log units, 0.0321
- RRIRARPPRLPRPRPRPMPPPRP — higher, 0.3
- RRIRQRPPRLPRPRPRPLMAPRP — within 0.2 log units, -0.0462
- RRIRNRPPRLPRPRPRPARQPRP — higher, 0.304
- RRIRHRPPRLPRPRPRPAFTPRP — within 0.2 log units, -0.311
- RRIRFRPPRLPRPRPRPMDSPRP — lower, -0.398
- RRIRPRPPRLPRPRPRPLESPRP — within 0.2 log units, -0.0234
- RRIRLRPPRLPRPRPRPLNWPRP — within 0.2 log units, -0.0552
- RRIRTRPPRLPRPRPRPNVYPRP — lower, -0.683
- RRIRRRPPRLPRPRPRPDNPPRP — lower, -0.582
- RRIRCRPPRLPRPRPRPFGCPRP — within 0.2 log units, -0.308
- RRIRNRPPRLPRPRPRPTWYPRP — within 0.2 log units, 0.0037
- RRIRERPPRLPRPRPRPMAFPRP — higher, 0.099
- RRIRDRPPRLPRPRPRPWWPPRP — higher, 0.0881
- RRIRSRPPRLPRPRPRPKKNPRP — higher, 0.267
- RRIRIRPPRLPRPRPRPAPCPRP — within 0.2 log units, -0.0838
- RRIRLRPPRLPRPRPRPCYAPRP — within 0.2 log units, -0.0464
- RRIRARPPRLPRPRPRPRNQPRP — within 0.2 log units, -0.012
- RRIRSRPPRLPRPRPRPVHYPRP — lower, -0.707
- RRIRARPPRLPRPRPRPTMNPRP — higher, 0.0878
